Five molecules from patent US6942981 can be followed below.

Ends that are not written are not given here. * marks the point of attachment. Biotin = O=C1N[C@H]2[C@H](CS[C@H]2CCCCC(=O)*)N1

In experiment [1] the target is T1, GST-MPP1 PDZ domain fusion protein (Homo sapiens (Human), UniProt Q00013 67-152).
T1 construct: also called 55 Kd erythrocyte membrane protein; not shown: glutathione S-transferase (GST) encoded by pGEX-3X
T1 sequence: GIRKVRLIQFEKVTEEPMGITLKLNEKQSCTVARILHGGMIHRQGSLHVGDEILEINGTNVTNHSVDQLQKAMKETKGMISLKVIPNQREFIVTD
The experiment is described as follows: A/G assays.

Experiment [2] addresses T2, GST-MPP2 PDZ domain fusion protein.
T2 construct: also called maguk p55 subfamily member 2 (DLG2); MMP2; not shown: glutathione S-transferase (GST) encoded by pGEX-3X
T2 chain: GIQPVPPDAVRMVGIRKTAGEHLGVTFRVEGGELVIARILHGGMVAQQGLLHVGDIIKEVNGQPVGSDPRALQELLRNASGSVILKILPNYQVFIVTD
Briefly: A assay.

In experiment [3] the target is T3, GST-NeDLG PDZ domains 1-2 fusion protein (Mus musculus (Mouse), UniProt P70175 147-332).
T3 construct: also called NeDLG1; not shown: glutathione S-transferase (GST) encoded by pGEX-3X
T3 chain: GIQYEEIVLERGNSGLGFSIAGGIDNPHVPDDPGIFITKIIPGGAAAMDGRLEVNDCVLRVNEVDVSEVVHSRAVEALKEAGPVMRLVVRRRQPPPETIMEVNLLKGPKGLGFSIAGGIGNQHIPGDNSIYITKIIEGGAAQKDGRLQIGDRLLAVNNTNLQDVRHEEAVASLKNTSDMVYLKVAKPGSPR
The experiment is described as follows: G assay.

The target in experiment [4] is T4, GST-LIMK2 PDZ domain fusion protein (human, UniProt P53671 147-237).
T4 construct: also called human LIM domain kinase 2; not shown: glutathione S-transferase (GST) encoded by pGEX-3X
T4 sequence: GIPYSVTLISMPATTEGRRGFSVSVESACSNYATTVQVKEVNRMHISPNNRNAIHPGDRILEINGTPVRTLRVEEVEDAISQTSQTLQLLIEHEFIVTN
The experiment is described as follows: A/G assays.

In experiment [5] the target is T5, GST-DVL1 PDZ domain fusion protein (human).
T5 construct: also called human dishevelled segment polarity protein homolog; not shown: glutathione S-transferase (GST) encoded by pGEX-3X
T5 chain: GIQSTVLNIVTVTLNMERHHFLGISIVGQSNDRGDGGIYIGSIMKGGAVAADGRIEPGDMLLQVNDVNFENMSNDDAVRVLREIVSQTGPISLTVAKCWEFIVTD
Briefly: A/G assays.

Experiment [6] deals with T6, GST-MINT3 PDZ domain fusion protein (human).
T6 construct: also called human MINT3; not shown: glutathione S-transferase (GST) encoded by pGEX-3X
T6 chain: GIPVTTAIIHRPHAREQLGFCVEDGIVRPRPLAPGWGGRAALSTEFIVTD
The experiment is described as follows: A/G assays.

The target of experiment [7] is T7, GST-TAX2 PDZ domain fusion protein (human, UniProt O14908 129-216).
T7 construct: not shown: glutathione S-transferase (GST) encoded by pGEX-3X
T7 chain: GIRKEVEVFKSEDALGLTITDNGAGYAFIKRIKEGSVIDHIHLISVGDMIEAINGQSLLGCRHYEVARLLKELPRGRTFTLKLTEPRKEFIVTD
The experiment is described as follows: A/G assays.

For experiment [8], the target named is T8, GST-SYN1a (alpha1-syntrophin) PDZ domain fusion protein (Homo sapiens (Human), UniProt Q13424 84-179).
T8 construct: also called SYN 1 α; not shown: glutathione S-transferase (GST) encoded by pGEX-3X
T8 sequence: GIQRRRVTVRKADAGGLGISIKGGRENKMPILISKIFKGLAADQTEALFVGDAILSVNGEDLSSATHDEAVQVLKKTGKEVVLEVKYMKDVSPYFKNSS
Briefly: A/G assays.

For experiment [9], the target named is T8, GST-SYN1a (alpha1-syntrophin) PDZ …. Briefly: G assay.
Experiment [10] has as its target T2, GST-MPP2 PDZ domain fusion protein. The experiment is described as follows: A/G assays.
Experiment [11] has as its target T9, GST-CASK PDZ domain fusion protein (mouse, UniProt O14936 485-575 (human entry)).
T9 sequence: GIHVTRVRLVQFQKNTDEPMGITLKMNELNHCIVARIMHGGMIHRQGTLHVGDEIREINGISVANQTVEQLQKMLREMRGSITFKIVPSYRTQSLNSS
The experiment is described as follows: A/G assays.

For experiment [12], the target named is T3, GST-NeDLG PDZ domains 1-2 fusion protein. Briefly: A/G assays.
The target in experiment [13] is T10, GST-prIL16 PDZ domains 1-2 fusion protein (Homo sapiens (Human), UniProt Q14005 1110-1325).
T10 construct: also called putative interleukin 16 precursor; not shown: glutathione S-transferase (GST) encoded by pGEX-3X
T10 sequence: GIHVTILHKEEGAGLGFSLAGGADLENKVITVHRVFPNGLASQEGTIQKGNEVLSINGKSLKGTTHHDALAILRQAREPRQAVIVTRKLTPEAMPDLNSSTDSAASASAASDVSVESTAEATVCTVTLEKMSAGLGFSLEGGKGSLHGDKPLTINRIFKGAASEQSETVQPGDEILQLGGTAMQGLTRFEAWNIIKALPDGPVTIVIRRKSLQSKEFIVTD
Briefly: G assay.

For experiment [14], the target named is T1, GST-MPP1 PDZ domain fusion protein. Briefly: G assay.
Experiment [15] deals with T11, GST-41.8 kD (hypothetical 41.8 kD protein) PDZ domain fusion protein (Mus musculus (Mouse), UniProt Q9EQZ7 682-763).
T11 construct: not shown: glutathione S-transferase (GST) encoded by pGEX-3X
T11 sequence: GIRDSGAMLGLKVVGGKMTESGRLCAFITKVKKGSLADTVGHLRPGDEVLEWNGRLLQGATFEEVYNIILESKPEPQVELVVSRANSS
Briefly: A assay.

The target in experiment [16] is T3, GST-NeDLG PDZ domains 1-2 fusion protein. Briefly: G assay titration of biotinylated peptide on immobilized GST-PDZ, saturation fit (apparent affinity). An excerpt:
FIGS. 2A and 2B show the Apparent Affinity Determination for PDZ-Ligand Interactions. […] The binding to GST alone (<0.2 OD units) was subtracted from the binding to the fusion proteins to obtain the signal at each peptide concentration.

Consider Biotin-QGDPALQDAGDSSRKEYFI (also called GC) [Glycophorin C C-terminal peptide AA37L], for which the binding result is “no binding” in [1]; “binds” in [2]; “binds” in experiment [3]; “no binding” in experiment [4]; “no binding” in experiment [5]; “no binding” in experiment [6]. Moreover, the binding result in [7] and in experiment [8] was “no binding” each time.

For Biotin-LASKSAEEGKQIPDSLSTDL [DOCK2 C-terminal peptide AA40L], the binding result in [3] is “binds”; in [9], “binds”; in experiment [4] it was “no binding”; in experiment [10] it was “no binding”; in experiment [5] it was “no binding”; in [6], “no binding”. In addition, in [7], the binding result was “no binding”.

Take Biotin-PKQANGGAYQKPTKQEEFYA [CD138 (syndecan) C-terminal peptide AA18L]: the binding result in experiment [11], in experiment [4], in experiment [10], in experiment [5], in [6] and in experiment [7] was “no binding” throughout. Moreover, the binding result in experiment [12] and in experiment [8] was “no binding” each time.

Regarding Biotin-QFMTADETRNLQNVDMKIGV [CD44 (long form) C-terminal peptide AA9L], the binding result was “binds” in experiment [13]; “binds” in experiment [14]; “no binding” in experiment [4]; “no binding” in experiment [10]; “no binding” in experiment [5]; “no binding” in experiment [6]. Also, the binding result in [7], in [12] and in experiment [8] was “no binding” in each case.

As to Biotin-ISGTPTSTMVHGMTSSSSVV [CLASP-2 C-terminal peptide AA2L], the binding result in [15] is “binds”; in experiment [4], “no binding”; in experiment [10], “no binding”; in experiment [5], “no binding”; in [6], “no binding”; in experiment [7], “no binding”. Besides, the binding result in [8] is reported as “no binding”. In experiment [16], the Kd was determined as 7.5 µM.
